Assay results as given in patent US20050176632A1 (published 2005).

B1: human type ZAQ ligand mature peptide (type G, 86 amino acid residues) (ligand)
chain: AVITGACERDVQCGAGTCCAISLWLRGLRMCTPLGREGEECHPGSHKVPFFRKRKHHTCPCLPNLLCSRFPDGRYRCSMDLKNINF
B2: snake venom MIT1 (ligand)
chain: AVITGACERDLQCGKGTCCAVSLWIKSVRVCTPVGTSGEDCHPASHKIPFSGQRMHHTCPCAPNLACVQTSPKKFKCLSK

What was measured:
[1] = target: human type ZAQ (G protein-conjugated receptor protein ZAQ) expressed on CHO cells (ZAQC-B1 cells) (human, UniProt Q8TCW9 1-393); experiment: cell-based or functional assay
[2] = target: human type I5E receptor expressed on CHO cells (I5E-4 cells) (human, UniProt Q8NFJ6 1-384); experiment: cell-based or functional assay
Sequence of human type I5E receptor expressed on CHO cells (I5E-4 cells) (Q8NFJ6 whole entry): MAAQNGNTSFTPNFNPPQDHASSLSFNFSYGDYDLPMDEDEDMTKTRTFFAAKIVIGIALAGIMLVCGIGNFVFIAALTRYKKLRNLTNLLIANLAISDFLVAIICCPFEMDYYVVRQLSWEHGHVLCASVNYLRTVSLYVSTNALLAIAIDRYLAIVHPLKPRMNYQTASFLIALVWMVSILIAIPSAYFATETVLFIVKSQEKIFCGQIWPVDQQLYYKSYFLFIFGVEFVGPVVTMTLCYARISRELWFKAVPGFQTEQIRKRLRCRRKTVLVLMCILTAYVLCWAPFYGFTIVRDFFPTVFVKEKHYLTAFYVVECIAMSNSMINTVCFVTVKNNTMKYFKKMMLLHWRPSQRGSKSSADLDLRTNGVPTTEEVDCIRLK

Sequence of human type ZAQ (G protein-conjugated receptor protein ZAQ) expressed on CHO cells (ZAQC-B1 cells) (Q8TCW9 whole entry): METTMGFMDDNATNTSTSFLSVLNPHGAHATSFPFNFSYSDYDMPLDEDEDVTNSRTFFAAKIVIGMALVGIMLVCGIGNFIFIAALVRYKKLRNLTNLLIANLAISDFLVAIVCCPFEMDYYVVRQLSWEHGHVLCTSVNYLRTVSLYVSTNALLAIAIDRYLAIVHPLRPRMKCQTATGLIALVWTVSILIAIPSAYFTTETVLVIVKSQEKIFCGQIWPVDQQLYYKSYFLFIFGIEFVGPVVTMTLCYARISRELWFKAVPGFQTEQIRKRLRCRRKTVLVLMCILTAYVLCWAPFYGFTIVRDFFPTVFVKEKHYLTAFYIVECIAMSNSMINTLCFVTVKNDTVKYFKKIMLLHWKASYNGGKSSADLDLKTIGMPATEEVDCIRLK

Row | Binder | EC50 of the increase of intracellular calcium concentration in ZAQ expression CHO cells (ZAQC-B1 cells), FLIPR [1] [nM] | action to activate a human type I5E receptor, relative to the human type ZAQ ligand peptide (FLIPR) [2] | action to activate an I5E receptor, relative to the human type Bv8 peptide (FLIPR) [2] | action to activate a ZAQ receptor, relative to the human type ZAQ ligand peptide (FLIPR) [1]
1 | B1 | 0.096 |  |  | 
2 | B2 |  | ~100 times greater than the human type ZAQ ligand peptide | 10 times greater than the human type Bv8 peptide | 10 times greater than the human type ZAQ ligand peptide
